Measurements from patent US7985567B2, “Host cells and methods for producing 3-methyl-2-buten-1-ol, 3-methyl-3-buten-1-ol, and 3-methyl-butan-1-ol” (The Regents of the University of California, priority 2007, dated 2011).

Tested on: S. cerevisiae BY4741 transformed with pESC expressing a reductase candidate gene
Assay: Screening of reductase candidates for reduction of 3-methyl-2-butenol to 3-methyl-butanol
Type: cell-based, Saccharomyces cerevisiae
Conditions: 3-methyl-2-butenol 1 g/l; relative to controls; FIGS. 4 and 5
Experimental: To identify enzymes with the capability to catalyze the reduction 3-methyl-2-butenol to 3-methyl-butanol the following assay system was employed. 5 ml of synthetic defined medium lacking leucine with 1.8% galactose and 0.2% glucose was inoculated with an overnight culture of S. cerevisiae BY4741 freshly transformed with a vector (pESC) expressing a reductase candidate gene to achieve a final absorbance of 0.5 at 600 nm (A600). The cultures were grown at 30° C. at 200 r.p.m. After 48 hours, 3-methyl-2-butenol (1 g/l) was added to the culture.
Cultures were sampled for isopentanol production after addition of 3-methyl-2-butenol as described in Example 3.

Row | Molecule | isopentanol production from 3-methyl-2-butenol by yeast over-expressing the reductase
1 | OYE2: Old yellow enzyme family reductase of S. cerevisiae, gene locus YHR179w (protein, UniProt Q03558 2-400, looked up) NADPH dehydrogenase 2: PFVKDFKPQALGDTNLFKPIKIGNNELLHRAVIPPLTRMRAQHPGNIPNRDWAVEYYAQRAQRPGTLIITEGTFPSPQSGGYDNAPGIWSEEQIKEWTKIFKAIHENKSFAWVQLWVLGWAAFPDTLARDGLRYDSASDNVYMNAEQEEKAKKANNPQHSITKDEIKQYVKEYVQAAKNSIAAGADGVEIHSANGYLLNQFLDPHSNNRTDEYGGSIENRARFTLEVVDAVVDAIGPEKVGLRLSPYGVFNSMSGGAETGIVAQYAYVLGELERRAKAGKRLAFVHLVEPRVTNPFLTEGEGEYNGGSNKFAYSIWKGPIIRAGNFALHPEVVREEVKDPRTLIGYGRFFISNPDLVDRLEKGLPLNKYDRDTFYKMSAEGYIDYPTYEEALKLGWDKN | significant increase in isopentanol production
2 | OYE3: Old yellow enzyme family reductase of S. cerevisiae, gene locus YPL171c (protein, UniProt P41816 2-400, looked up) NADPH dehydrogenase 3: PFVKGFEPISLRDTNLFEPIKIGNTQLAHRAVMPPLTRMRATHPGNIPNKEWAAVYYGQRAQRPGTMIITEGTFISPQAGGYDNAPGIWSDEQVAEWKNIFLAIHDCQSFAWVQLWSLGWASFPDVLARDGLRYDCASDRVYMNATLQEKAKDANNLEHSLTKDDIKQYIKDYIHAAKNSIAAGADGVEIHSANGYLLNQFLDPHSNKRTDEYGGTIENRARFTLEVVDALIETIGPERVGLRLSPYGTFNSMSGGAEPGIIAQYSYVLGELEKRAKAGKRLAFVHLVEPRVTDPSLVEGEGEYSEGTNDFAYSIWKGPIIRAGNYALHPEVVREQVKDPRTLIGYGRFFISNPDLVYRLEEGLPLNKYDRSTFYTMSAEGYTDYPTYEEAVDLGWNKN | significant increase in isopentanol production
